Data set [1] deals with the molecule itself. Description: sedimentation velocity analytical ultracentrifugation.
The data set “SPR” concerns the molecule itself. Nature of the data set: SPR. A general note: In SPR one partner is held on a chip, and binding of the other changes the refractive index at the surface.

B1: Chordin (protein)
chain: AGPEPPVLPIRSEKEPLPVRGAAGCTFGGKVYALDETWHPDLGEPFGVMRCVLCACEAPQWGRRTRGPGRVSCKNIKPECPTPACGQPRQLPGHCCQTCPQERSSSERQPSGLSFEYPRDPEHRSYSDRGEPGAEERARGDGHTDFVALLTGPRSQAVARARVSLLRSSLRFSISYRRLDRPTRIRFSDSNGSVLFEHPAAPTQDGLVCGVWRAVPRLSLRLLRAEQLHVALVTLTHPSGEVWGPLIRHRALAAETFSAILTLEGPPQQGVGGITLLTLSDTEDSLHFLLLFRGLLEPRSGGLTQVPLRLQILHQGQLLRELQANVSAQEPGFAEVLPNLTVQEMDWLVLGELQMALEWAGRPGLRISGHIAARKSCDVLQSVLCGADALIPVQTGAAGSASLTLLGNGSLIYQVQVVGTSSEVVAMTLETKPQRRDQRTVLCHMAGLQPGGHTAVGICPGLGARGAHMLLQNELFLNVGTKDFPDGELRGHVAALPYCGHSARHDTLPVPLAGALVLPPVKSQAAGHAWLSLDTHCHLHYEVLLAGLGGSEQGTVTAHLLGPPGTPGPRRLLKGFYGSEAQGVVKDLEPELLRHLAKGMASLMITTKGSPRGELRGQVHIANQCEVGGLRLEAAGAEGVRALGAPDTASAAPPVVPGLPALAPAKPGGPGRPRDPNTCFFEGQQRPHGARWAPNYDPLCSLCTCQRRTVICDPVVCPPPSCPHPVQAPDQCCPVCPEKQDVRDLPGLPRSRDPGEGCYFDGDRSWRAAGTRWHPVVPPFGLIKCAVCTCKGGTGEVHCEKVQCPRLACAQPVRVNPTDCCKQCPVGSGAHPQLGDPMQADGPRGCRFAGQWFPESQSWHPSVPPFGEMSCITCRCGAGVPHCERDDCSLPLSCGSGKESRCCSRCTAHRRPAPETRTDPELEKEAEGS
The Kd is a measure of binding affinity in units of concentration. Lower therefore signals a tighter complex. In the case of B1, the Kd in data set [1] came to 3300 nM; in the data set “SPR” it was 3.05 nM.

B2: Chordin ∆C ∆C (C-terminally tolloid-cleaved fragment, lacking vWC4) (protein)
chain: AGPEPPVLPIRSEKEPLPVRGAAGCTFGGKVYALDETWHPDLGEPFGVMRCVLCACEAPQWGRRTRGPGRVSCKNIKPECPTPACGQPRQLPGHCCQTCPQERSSSERQPSGLSFEYPRDPEHRSYSDRGEPGAEERARGDGHTDFVALLTGPRSQAVARARVSLLRSSLRFSISYRRLDRPTRIRFSDSNGSVLFEHPAAPTQDGLVCGVWRAVPRLSLRLLRAEQLHVALVTLTHPSGEVWGPLIRHRALAAETFSAILTLEGPPQQGVGGITLLTLSDTEDSLHFLLLFRGLLEPRSGGLTQVPLRLQILHQGQLLRELQANVSAQEPGFAEVLPNLTVQEMDWLVLGELQMALEWAGRPGLRISGHIAARKSCDVLQSVLCGADALIPVQTGAAGSASLTLLGNGSLIYQVQVVGTSSEVVAMTLETKPQRRDQRTVLCHMAGLQPGGHTAVGICPGLGARGAHMLLQNELFLNVGTKDFPDGELRGHVAALPYCGHSARHDTLPVPLAGALVLPPVKSQAAGHAWLSLDTHCHLHYEVLLAGLGGSEQGTVTAHLLGPPGTPGPRRLLKGFYGSEAQGVVKDLEPELLRHLAKGMASLMITTKGSPRGELRGQVHIANQCEVGGLRLEAAGAEGVRALGAPDTASAAPPVVPGLPALAPAKPGGPGRPRDPNTCFFEGQQRPHGARWAPNYDPLCSLCTCQRRTVICDPVVCPPPSCPHPVQAPDQCCPVCPEKQDVRDLPGLPRSRDPGEGCYFDGDRSWRAAGTRWHPVVPPFGLIKCAVCTCKGGTGEVHCEKVQCPRLACAQPVRVNPTDCCKQCPVGSGA
B2 had a Kd in “SPR” of 3.15 nM.

These data come from paper PMC4613500 (2015).
